What was measured:
[1] = Thermal unfolding by circular dichroism and nano-differential scanning fluorimetry; type: physicochemical; conditions: circular dichroism thermal ramping (20-70 °C, 220 nm) and nanoDSF (0.35 mg ml^−1, 1 °C min^−1); 25 mM phosphate pH 7.5, 150 mM NaF; triplicates
Description: Thermal unfolding coupled to CD was performed between 20 °C and 70 °C with a measure in triplicate every 5 °C increment. Millidegree values at 220 nm were plotted against their temperature and the melting temperature calculated using a Boltzmann sigmoidal equation.
Melting temperatures were measured by Nano differential scanning fluorimetry using a Prometheus NT.48 (Nanotemper). Tryptophan intrinsic fluorescence emission was recorded at 330 and 350 nm with 30% excitation power during thermal ramping from 20 to 90 °C (1 °C min^−1). 10 μl of proteins in 25 mM phosphate buffer (pH 7.5), 150 mM NaF and at a concentration of 0.35 mg ml^−1 were loaded in nanoDSF grade standard capillaries. Samples were measured in triplicates and the calculated melting temperatures averaged. Melting temperature were calculated by the software PR.ThermControl.

[2] = tested on: GFP-SKL import in pex5Δ yeast cells; experiment: Fluorescence microscopy, import of GFP-SKL in cells expressing Pex5p variants; type: cell-based, S. cerevisiae; conditions: pex5Δ cells expressing plasmid-encoded Pex5p variant and GFP-SKL, grown in oleate
Description: Cells expressing distinct Pex5p variants (wildtype, Pex5p^2A or Pex5p^2D) and GFP-SKL were grown overnight in 50 ml YNO medium supplemented with 0.1% (w/v) glucose to an OD600 of 1–1.5. Aliquots of 5.4 ml were taken and formaldehyde was added to a final concentration of 3.7% (v/v). Samples were incubated for 10 min at RT with slight agitation. Cells were collected by centrifugation (5 min at 2000 g), resuspended in 1 ml of 0.1 M potassium phosphate buffer (pH 6.8) containing 3.7% (v/v) formaldehyde and incubated for 1 h at RT with slight agitation. Following centrifugation (30 s at 16,000 g), cells were resuspended in 1 ml of 0.1 M potassium phosphate buffer (pH 6.8) containing 10 mM ethanolamine and incubated for further 10 min at RT. Subsequently, cells were washed twice with phosphate-buffered saline (PBS) and resuspended in 10–20 µl of PBS containing 0.1% (v/v) Triton X-100. Fixed cells were analyzed within 48 h after preparation.
Fluorescence microscopy was performed using a Zeiss Axio Observer.Z1 microscope equipped with an alpha Plan-Aprochromat 100× objective and an AxioCam MR R3. GFP signal was visualized with a 38 HE filterset from Zeiss. Images were processed using Adobe Photoshop CS5 (version 12.0.4 ×64; Adobe Systems Incorporated). To document the structural integrity of cells, bright field images were acquired, adjusted in a way that only the cell boundaries were visible and subsequently added into the blue channel in Photoshop as reported before ([Motley and Hettema 2007]).

[3] = Circular dichroism, folding of Pex5p variants; type: physicochemical; conditions: far-UV CD; 25 mM phosphate buffer pH 7.5, 150 mM NaF; 0.2 mg ml^−1
Description: Circular dichroism (CD) experiments were performed on a J-810 spectropolarimeter (Jasco). Proteins were dialyzed against 25 mM phosphate buffer (pH 7.5), 150 mM NaF. Far-UV spectra were recorded between 180 and 280 nm, using a 1-mm cuvette and a concentration of 0.2 mg ml^−1 protein. The machine settings were 1 nm bandwidth, 1 s response, 1 nm data pitch and 100 nm min^−1 scan speed.

organellar pellet = experiment: Distribution of Pex5p variants between cytosolic fraction and organellar pellet; type: cell-based, S. cerevisiae; conditions: postnuclear supernatants of oleate-grown cells; immunoblot; n = 3
Description: Spheroplasting of yeast cells, homogenization, preparation of postnuclear supernatants and generation of cytosolic fractions and organellar pellets by centrifugation (25,000 g for 15 min at 4 °C) were performed as described previously ([Erdmann et al. 1989]).
Immunoblot analyses were performed according to standard procedures. Polyclonal rabbit antibodies used were raised against Pex5p ([Albertini et al. 1997]), Pex14p ([Girzalsky et al. 1999]), Pex13p ([Girzalsky et al. 1999]) and Pex17p ([Huhse et al. 1998]). To detect GFP, monoclonal mouse antibodies (Sigma-Aldrich/Merck or Roche Diagnostics, Germany) were used. Immuno-reactive complexes were visualized either using the IRDye 800CW goat anti-mouse IgG or IRDye 680RD goat anti-rabbit secondary antibody (Li-COR Biosciences, Bad Homburg, Germany) followed by detection with an ‘Infrarot Imaging System’ (Li-COR Biosciences) or using horseradish-peroxidase coupled anti-rabbit or anti-mouse antibodies (Sigma-Aldrich/Merck, Germany) and subsequent detection of chemiluminescence signals with a ChemoCam Camera system (INTAS Science instruments GmbH, Göttingen, Germany). Quantification of immunoblot signals (Supplementary Figure 1E; n = 3) was performed using the software Image Studio Lite (LI-COR Biosciences).

B1: Pex5p^WT: Pex5p wildtype, PTS1 receptor of S. cerevisiae (protein)
chain: MDVGSCSVGNNPLAQLHKHTQQNKSLQFNQKNNGRLNESPLQGTNKPGISEAFISNVNAISQENMANMQRFINGEPLIDDKRRMEIGPSSGRLPPFSNVHSLQTSANPTQIKGVNDISHWSQEFQGSNSIQNRNADTGNSEKAWQRGSTTASSRFQYPNTMMNNYAYASMNSLSGSRLQSPAFMNQQQSGRSKEGVNEQEQQPWTDQFEKLEKEVSENLDINDEIEKEENVSEVEQNKPETVEKEEGVYGDQYQSDFQEVWDSIHKDAEEVLPSELVNDDLNLGEDYLKYLGGRVNGNIEYAFQSNNEYFNNPNAYKIGCLLMENGAKLSEAALAFEAAVKEKPDHVDAWLRLGLVQTQNEKELNGISALEECLKLDPKNLEAMKTLAISYINEGYDMSAFTMLDKWAETKYPEIWSRIKQQDDKFQKEKGFTHIDMNAHITKQFLQLANNLSTIDPEIQLCLGLLFYTKDDFDKTIDCFESALRVNPNDELMWNRLGASLANSNRSEEAIQAYHRALQLKPSFVRARYNLAVSSMNIGCFKEAAGYLLSVLSMHEVNTNNKKGDVGSLLNTYNDTVIETLKRVFIAMNRDDLLQEVKPGMDLKRFKGEFSF
modifications: left off: His6, N-terminal, state not stated
notes: Pex5p wildtype, PTS1 receptor of S. cerevisiae
Q: What does the source list for B1?
A: melting temperature [1]: approximately 46 °C; subcellular distribution of GFP-SKL [2]: import of GFP-SKL is restored; subcellular distribution of GFP-SKL ([2]; listed as Pex5p^2A): no import phenotype; subcellular distribution of GFP-SKL ([2]; listed as Pex5p^2D): both a punctate staining and diffuse cytosolic fluorescence, suggesting a reduced import of GFP-SKL into peroxisomes; folding [3]: folded with no major structural changes; distribution between cytosolic fraction and organellar pellet (membrane binding) (organellar pellet): no detectable difference
